Earlier results in article PMC9434060 (Heliyon, 2022).

Conditions: hIntL-1, ligand not given; ref [10]

Kd: 85 ± 14 nM
B1: hIntL-1: Human intelectin-1, disulfide-linked trimeric lectin (protein, UniProt Q8WWA0 19-298, looked up)
Intelectin-1: TDEANTYFKEWTCSSSPSLPRSCKEIKDECPSAFDGLYFLRTENGVIYQTFCDMTSGGGGWTLVASVHENDMRGKCTVGDRWSSQQGSKAVYPEGDGNWANYNTFGSAEAATSDDYKNPGYYDIQAKDLGIWHVPNKSPMQHWRNSSLLRYRTDTGFLQTLGHNLFGIYQKYPVKYGEGKCWTDNGPVIPVVYDFGDAQKTASYYSPYGQREFTAGFVQFRVFNNERAANALCAGMRVTGCNTEHHCIGGGGYFPEASPQQCGDFSGFDWSGYGTHVGYS
